Assay results reported in patent publication US20040220079A1 (OKLAHOMA MEDICAL RESEARCH FOUNDATION, published 2004).
No end group written: not given here.

Assays:
recombinant memapsin 2 [1] = molecular target: T1, recombinant memapsin 2 (human, UniProt P56817 14-454, limits assumed); assay: inhibition constant quoted in the crystallisation example
T1 construct: also called M2; beta-secretase

recombinant memapsin 2 [2] = molecular target: T1, recombinant memapsin 2; assay: enzyme inhibition with a synthetic fluorogenic peptide substrate
recombinant memapsin 2 [3] = molecular target: T1, recombinant memapsin 2; assay: comparison of inhibition constants with and without P4 Glu

T1 sequence (P56817 14-454 limits assumed): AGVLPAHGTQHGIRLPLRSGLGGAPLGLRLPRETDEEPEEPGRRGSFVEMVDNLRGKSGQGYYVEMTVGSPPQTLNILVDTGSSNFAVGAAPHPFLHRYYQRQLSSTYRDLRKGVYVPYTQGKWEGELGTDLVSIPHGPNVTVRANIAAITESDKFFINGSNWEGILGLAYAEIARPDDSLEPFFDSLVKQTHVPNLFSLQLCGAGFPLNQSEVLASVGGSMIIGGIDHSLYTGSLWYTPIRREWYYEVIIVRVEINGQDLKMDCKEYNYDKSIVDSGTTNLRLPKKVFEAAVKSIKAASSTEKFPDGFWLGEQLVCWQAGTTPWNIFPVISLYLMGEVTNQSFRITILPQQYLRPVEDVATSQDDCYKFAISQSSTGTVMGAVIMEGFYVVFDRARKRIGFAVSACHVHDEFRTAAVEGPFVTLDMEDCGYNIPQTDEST

Ki (recombinant memapsin 2 [1]) | Ki (recombinant memapsin 2 [2]) | fold increase in Ki against OM99-2 (recombinant memapsin 2 [3]) | Binder
10 nM | – | – | EVNLAAEF (also: Leu-Ala peptide bond replaced by hydroxyethylene isostere -CH(OH)-CH2- (Leu*Ala)) [OM99-2]
– | 30 nM | 10 fold | VNLAAEF (also: Leu-Ala peptide bond replaced by hydroxyethylene isostere -CH(OH)-CH2-, also called OMR99-1; Val-Asn-Leu*Ala-Ala-Glu-Phe) [OM99-1]
